Data from patent US8895303B2, “Method of cell culture and method of treatment comprising a vEPO protein variant” (Charite-Universitatsmedizin Berlin, priority 2006, dated 2014).

Tests used:
[1] = system: bone marrow cells; assay: Erythroid colony formation assay (CFU-E); assay type: cell-based, mouse; conditions: 150 U/l mEPO or rhEPO, comparable protein concentrations of variants; no additional cytokines; counted at DIV2
Procedure: Bone marrow cells were harvested from tibia and femur of male […] mice (8-11 weeks) and resuspended in α-medium (supplemented with 10% fetal calf serum GOLD, 1% penicillium/streptavidine and 1% L-glutamine). Cells were seeded in […] Petri dishes (225.000 cells/dish) containing 8 parts Metho Cult SF 3236 methyl cellulose (StemCell Technologie Inc), 1 part cells and 2 parts a-medium mixed with HEK-cell preconditioned medium containing the EPO derivates (150 U/l in the case of murine EPO). 150 U/l of rhEPO (Roche) was used as positive control. Plates were incubated at 37° C. in a humidified atmosphere containing 5% CO2 for 48 hours. For evaluation only reddish colonies containing at least 6 hemoglobinised cells were taken into account.
Metho Cult SF 3236 triggers the formation of colonies (CFU-M, CFU-G or CFU-E) only after addition of the appropriate cytokines. […] The small irregular reddish colonies disappear by day 3.
In this assay, the hematopoietic potential of the variants was tested and compared to wild type form of EPO as well as rhEPO. The following conditions were prepared for comparison: medium from HEK cells transfected with pZ/EG as negative control, medium from HEK cells transfected with pZ/EG cells plus 150U/l rhEPO (Roche) as a positive control, and medium from HEK cells transfected with either pZ/EG-EPO-IRES (150 U/l murine EPO), pZ/EG-Splice-IRES (variant S; mS) or pZ/EG-G3-IRES (variant G3; mG3). At DIV2 only reddish colonies were counted containing at least 6 hemoglobinised cells. The results of three independent experiments are depicted in FIG. 5.

[2] = system: rat primary cortical neurons; assay: Oxygen glucose deprivation (OGD) neuroprotection assay, LDH release; assay type: cell-based; conditions: for neuroprotection (reduction in LDH release): OGD 3 h 15 min (higher level of damage)
Procedure: Rat primary neuronal cultures were obtained from E16 to early E19 embryos of Wistar rats (Bundesinstitut für gesundheitlichen Verbraucherschutz and Veterinärmedizin, Berlin, Germany). Cre-expressing mouse neurons were obtained from E16 embryos of heterozygous transgenic mice expressing Cre-recombinase under the control of the tubulin α-1 promoter (provided by Dr. U. Schweitzer; Experimental Endocrinology, Charité). Murine and rat cultures were prepared according to a modified protocol from Brewer (1995) J Neurosci Res. 42: 674-83. Cerebral cortex was isolated after removal of meninges and rinsed twice in PBS (Biochrom, Berlin, Germany). After 15 min incubation in trypsin/EDTA (0.05/0.02% w/v in PBS) at 37° C., tissues were rinsed twice in N-Med (modified Eagle's medium from Gibco with 10% fetal calf serum, 100 U penicillin plus streptomycin from Biochrom, 2 mM L-glutamine, 100 IE insulin/I, 10 mM HEPES and 44 mM glucose) and dissociated carefully in a small volume of N-Med using a Pasteur pipette. […]
For OGD, the culture medium was washed out by rinsing once with PBS. […] After 24 h, lactate dehydrogenase (LDH) activity was measured in the supernatants as an indicator of cell death.
For LDH measurement 25 μl of medium was mixed with 100 μl fresh β-NADH solution (0.15 mg/ml in 1×LDH-buffer; Sigma, reduced form) in a 96 wells plate (Greiner). 25 μl of 22.7 mM pyruvate (Sigma) was added immediately before placing the plate into the Reader (Thermo Labsystems; MRX^TC Revelation). […] LDH-concentration was calculated proportionally to the LDH-standard (Greiner, system calibrator). […]
For pretreatment with rhEPO, wild type mEPO, wild type hEPO or EPO variants the medium was removed to an end volume of 200 μl and filled up with 200 μl fresh NBM+B27 containing equimolar amounts (corresponding to 200 U/l rhEpo) of EPO or EPO variants, respectively. […] Cell death was assessed 24 h after OGD by measurement of LDH release. […]

Molecule	hematopoietic potential (formation of CFU-E) [1]	protection rate (reduction in LDH release) ([2]; OGD 1 h 40 min and 1 h 50 min)	neuroprotection (reduction in LDH release) [2] [%]
mEPO: wild type mouse erythropoietin expressed in HEK cells (protein, listed as Mus musculus) MGVPERPTLLLLLSLLLIPLGLPVLCAPPRLICDSRVLERYILEAKEAENVTMGCAEGPRLSENITVPDTKVNFYAWKRMEVEEQAIEVWQGLSLLSEAILQAQALLANSSQPPETLQLHIDKAISGLRSLTSLLRVLGAQKELMSPPDTTPPAPLRTLTVDTFCKLFRVYANFLRGKLKLYTGEVCRRGDR	formation of cfu-e	no protection	
mG3: murine EPO variant, peptide sequence SEQ ID NO 16 (protein, listed as Mus musculus) MGVPERPTLLLLLSLLLIPLGLPVLCAPPRLICDSRVLERYILEAKEAENVTMGCAEGPRLSENITVPDTKVNFYAWKRMEVEEQAIEVWQGLSLLSEAILQAQALLANFLRGKLKLYTGEVCRRGDR	lacked hematopoietic potential		~60
mS: murine EPO splice variant, peptide sequence SEQ ID NO 14 (protein, listed as Mus musculus) MGVPERPTLLLLLSLLLIPLGLPVLCAPPRLICDSRVLERYILEAKEAENVTMGCAEGPRLSENITVPDTKVNFYAWKRMEKELMSPPDTTPPAPLRTLTVDTFCKLFRVYANFLRGKLKLYTGEVCRRGDR	lacked hematopoietic potential		~60
